Data as given in patent US20200247894A1 (Regeneron, published 2020).

B1: H4H12889P (antibody, human IgG4 S228P, kappa, V domains shown)
VH: EVQLVESGGGLVQPGGSLRLSCAASGFIFSSYEMHWVRQAPGKGLEWISYISSSGTTIYYADSVKGRFTISRDNAKNSLYLHMNSLRAEDTAVYYCTRARITGTFDVFDIWGQGTMVTVSS
VL: DIQMTQSPSSLSASVGDRVTITCRASQSISSYLNWYQQKPGKAPKLLIFAASNLQSGVPSRFSGSRSGTDFTLTISSLQPEDFATYYCQQNYNIPYTFGQGTKLEIKR
notes: fully human anti-IL2Rg antibody, human IgG4; also called REGN7257
B2: H4H12890P (antibody, human IgG4 S228P, kappa, V domains shown)
VH: EVQLVESGGGLVQPGGSLRLSCAASGFTFNNYAMHWVRQAPGKGLEYVSSISSSGGSTYYEDSVKGRFTISRDNSKNTLYLQMGSLRAEDMAVYYCARSFYGSGTYYDTFDMWGQGTMVTVSS
VL: DIQMTQSPSSLSASIGDRVTITCRASQSISRYLNWYQQKPGKAPKLLIYAASSLQSGVPSRFSASGSGTDFTLTISSLQPEDFATYYCQQSYSTPFTFGQGTKLEIKR
notes: fully human anti-IL2Rg antibody, human IgG4
B3: H4H12899P (antibody, human IgG4 S228P, kappa, V domains shown)
VH: QVQLVESGGDLVKPGGSLRLSCATSGFTFSDFYMTWIRQAPGKGLEWISYISNSGSIVKYADSVKGRFTISRDNAKNSLYLQMNSLRAEDTAIYYCARFYGDRWGQGTLVTVSS
VL: DIQLTQSPSFLSASVGDRVTITCWASQGISTFLAWYQQKPGKAPKLLIYAASTLQSGVPSRFSGSGSGTDFTLTISSLQPEDFATYHCQQLNNYPWTFGQGTKVEIKR
notes: as for B2
B4: H4H12900P (antibody, human IgG4 S228P, kappa, V domains shown)
VH: QVQLVESGGGLVKPGGSLRLSCEASGFTFNDFYMTWIRQAPGKGLEWIAYISKSGDKMRYADSVKGRFSTSRDNAKNSLSLQMNSLRAEDTAVYYCARFYGDIWGQGTLVTVSS
VL: DIQLTQSPSFLSASVGDRVTITCWASQDISSFLVWYQQKPGKAPNLLIYAASALQSGVPSRFSGSGSGTEFTLTISSLQPEDFASYYCEQLNNYPWTFGQGTKVEIKR
notes: as for B2
B5: H4H12908P (antibody, human IgG4 S228P, kappa, V domains shown)
VH: EVQLVESGGRLVQPGGSLRLSCEASGFTFSNYGMTWVRQAPGKGLEWVSVISGSDNRKYYAESVKGRFTISRDNSKNTLYLQMNSLRAEDTAVYYCAKLGYSRSSKDFYYGMDVWGQGTTVTVSS
VL: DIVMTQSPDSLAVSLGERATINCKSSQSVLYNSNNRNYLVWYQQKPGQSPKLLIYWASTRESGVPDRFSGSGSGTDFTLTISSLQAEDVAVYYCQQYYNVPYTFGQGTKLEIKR
notes: as for B2
B6: H4H12913P2 (antibody, human IgG4 S228P, kappa, V domains shown)
VH: EVQLVESGGGVVRPGGSLRLSCAASGFTFDDYGMSWVRQAPGKGLEWISSINRNGGSADYADSVKGRFTISRDNAKNSLFLQMSSLRAEDTALYHCASGEFRFDYWGQGTLVTVSS
VL: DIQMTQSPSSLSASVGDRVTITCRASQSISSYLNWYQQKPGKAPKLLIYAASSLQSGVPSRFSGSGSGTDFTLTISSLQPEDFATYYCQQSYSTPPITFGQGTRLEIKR
notes: as for B2
B7: H4H12927P2 (antibody, human IgG4 S228P, kappa, V domains shown)
VH: EVQLVESGGGVVRPGGSLRLSCATSGFTFDDYGMSWVRQVPGKGLEWVSSVNRNGGTTDYADSVKGRFTISRDNAKRSLFLQMNSLRAEDTALYHCATGELFFDYWGQGTLVTVSS
VL: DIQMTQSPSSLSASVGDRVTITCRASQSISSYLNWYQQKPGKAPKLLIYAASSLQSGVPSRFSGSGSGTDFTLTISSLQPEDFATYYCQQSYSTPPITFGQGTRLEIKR
notes: as for B2

Legend:
[1] = molecular target: T1, human IL-2Rγ endogenously expressed on NK-92 and Jurkat cells (human, UniProt P31785 23-369); experiment: flow cytometry, 10 ug/ml antibody, Jurkat cells (endogenous human IL-2Rg)
T1 construct: whole, on cells; on cells it stands with the other receptor subunits of the cell line; also called IL-2Rg; CD132
T1 sequence (looked up): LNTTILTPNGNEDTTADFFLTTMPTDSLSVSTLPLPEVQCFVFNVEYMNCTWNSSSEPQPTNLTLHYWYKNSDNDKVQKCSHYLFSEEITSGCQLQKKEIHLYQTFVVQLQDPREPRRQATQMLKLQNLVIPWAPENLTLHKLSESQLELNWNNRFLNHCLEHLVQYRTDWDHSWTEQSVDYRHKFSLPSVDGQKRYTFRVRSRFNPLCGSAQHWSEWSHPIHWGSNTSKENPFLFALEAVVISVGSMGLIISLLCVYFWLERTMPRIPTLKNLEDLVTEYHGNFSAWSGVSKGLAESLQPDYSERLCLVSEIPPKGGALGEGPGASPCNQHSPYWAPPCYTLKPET
Experimental: (§1) For flow cytometry analyses, the cells were pre-incubated with mouse IgG at 100 μg/ml for 15 minutes at room temperature (RT) to block the binding of the antibodies to Fc receptors. […] Cells were washed, fixed using BD CytoFix™ (BD biosciences, #554655) and analyzed on an IQue® (Intellicyt®) Flow Cytometer or Accuri Flow cytometer (BD). […] The results were analyzed using ForeCyt® (IntelliCyt®) software to determine the geometric means of fluorescence (MFI) for viable cells. Binding ratios were calculated by normalizing the MFI of the test sample by the MFI of the unstained sample.

[2] = molecular target: T1, human IL-2Rγ endogenously expressed on …; experiment: flow cytometry, 10 ug/ml antibody, NK-92 cells (endogenous human IL-2Rg)
Experimental: as §1

[3] = molecular target: T2, mouse IL-2Rγ endogenously expressed on MC/9 cells (mouse, UniProt P34902 23-369); experiment: flow cytometry, 10 ug/ml antibody, MC/9 cells (endogenous mouse IL-2Rg)
T2 construct: whole, on cells
T2 sequence (looked up): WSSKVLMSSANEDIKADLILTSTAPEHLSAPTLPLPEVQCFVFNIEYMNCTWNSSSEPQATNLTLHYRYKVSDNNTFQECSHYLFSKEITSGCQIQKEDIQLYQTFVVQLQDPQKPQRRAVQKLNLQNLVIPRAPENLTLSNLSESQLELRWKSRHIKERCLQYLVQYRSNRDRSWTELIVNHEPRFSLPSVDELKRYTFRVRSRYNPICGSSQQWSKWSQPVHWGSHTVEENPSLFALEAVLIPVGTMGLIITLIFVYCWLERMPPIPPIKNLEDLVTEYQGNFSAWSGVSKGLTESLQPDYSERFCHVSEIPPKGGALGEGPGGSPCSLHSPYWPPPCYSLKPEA
Experimental: as §1

Row | Binding Ratio (Sample over unstained MFIs) [1] | Raw MFI [1] | Binding Ratio (Sample over unstained MFIs) [2] | Raw MFI [2] | Binding Ratio (Sample over unstained MFIs) [3] | Raw MFI [3] | Binder
1 | 19 | 1660 MFI | 94 | 14100 MFI | 1 | 91 MFI | B1
2 | 6 | 500 MFI | 30 | 4570 MFI | 1 | 170 MFI | B2
3 | 1 | 114 MFI | 18 | 2670 MFI | 1 | 167 MFI | B3
4 | 1 | 110 MFI | 28 | 4200 MFI | 1 | 128 MFI | B4
5 | 1 | 86 MFI | 17 | 2540 MFI | 1 | 154 MFI | B5
6 | 5 | 472 MFI | 33 | 4910 MFI | 1 | 178 MFI | B6
7 | 4 | 315 MFI | 23 | 3490 MFI | 1 | 191 MFI | B7
